In article PMC6021441, “Structural basis of the correct subunit assembly, aggregation, and intracellular degradation of nylon hydrolase” (Scientific Reports, 2018):

How the values were obtained:
Experiment in all cases: crystal structure; sitting-drop vapor diffusion, ammonium sulfate, 0.1 M HEPES pH 7.5, 0.2 M NaCl, 25% glycerol; space group C222_(1), two molecules (A/B dimer) in the asymmetric unit, tetramer by the crystallographic two-fold axis
Conditions in all cases: both partners purified
[1] = molecular target: T1, NylCp2-K^122 alpha subunit (D122K) (Arthrobacter, UniProt Q79F77 1-266, D122K)
T1 construct: NylCp2 alpha subunit with D122K; also called α subunit of NylCp2-K^122; source: E. coli JM109, purified with the beta subunit as the active enzyme
T1 sequence (looked up): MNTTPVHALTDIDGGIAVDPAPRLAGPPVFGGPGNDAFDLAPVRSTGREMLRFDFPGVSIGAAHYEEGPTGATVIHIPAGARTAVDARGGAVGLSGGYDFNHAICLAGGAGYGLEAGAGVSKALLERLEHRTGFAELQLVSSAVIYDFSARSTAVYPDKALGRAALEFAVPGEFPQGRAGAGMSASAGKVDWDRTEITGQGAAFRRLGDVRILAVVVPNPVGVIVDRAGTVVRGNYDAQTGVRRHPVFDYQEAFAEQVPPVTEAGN

[2] = molecular target: T2, NylCp2 alpha subunit (27 kDa), wild type (Arthrobacter, UniProt Q79F77 1-266)
T2 construct: NylCp2, alpha subunit made by autocleavage of the 355-residue precursor between Asn266 and Thr267; also called α subunit; source: E. coli JM109, purified with the beta subunit as the active enzyme
T2 sequence (looked up): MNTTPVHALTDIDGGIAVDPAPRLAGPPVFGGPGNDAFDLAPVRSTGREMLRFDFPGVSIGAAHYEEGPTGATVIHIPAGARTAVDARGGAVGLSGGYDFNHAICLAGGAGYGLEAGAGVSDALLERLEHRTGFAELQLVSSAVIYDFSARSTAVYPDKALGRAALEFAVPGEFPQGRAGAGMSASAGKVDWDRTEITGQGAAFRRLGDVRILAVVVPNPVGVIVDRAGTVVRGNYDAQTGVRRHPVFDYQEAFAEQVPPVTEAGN

[3] = molecular target: T3, NylCp2-G^122Y^130 alpha subunit (D122G/H130Y) (Arthrobacter, UniProt Q79F77 1-266, D122G | H130Y)
T3 construct: NylCp2 alpha subunit with D122G and H130Y; also called α subunit of NylCp2-G^122Y^130; source: E. coli JM109, purified with the beta subunit as the active enzyme
T3 sequence (looked up): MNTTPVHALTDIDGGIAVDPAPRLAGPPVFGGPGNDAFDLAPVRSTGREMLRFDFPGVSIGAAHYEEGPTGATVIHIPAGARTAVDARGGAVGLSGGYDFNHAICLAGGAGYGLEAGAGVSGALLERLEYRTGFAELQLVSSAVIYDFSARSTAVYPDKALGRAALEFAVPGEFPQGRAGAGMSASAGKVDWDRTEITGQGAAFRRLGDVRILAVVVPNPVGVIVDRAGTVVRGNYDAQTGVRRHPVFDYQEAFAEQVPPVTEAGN

[4] = molecular target: T4, NylCp2-G^122Y^130A^36Q^263 alpha subunit (D122G/H130Y/D36A/E263Q) (Arthrobacter, UniProt Q79F77 1-266, D122G | H130Y | D36A | E263Q)
T4 construct: NylCp2 alpha subunit with four substitutions; also called α subunit of NylCp2-G^122Y^130A^36Q^263; source: E. coli JM109, purified with the beta subunit as the active enzyme
T4 sequence (looked up): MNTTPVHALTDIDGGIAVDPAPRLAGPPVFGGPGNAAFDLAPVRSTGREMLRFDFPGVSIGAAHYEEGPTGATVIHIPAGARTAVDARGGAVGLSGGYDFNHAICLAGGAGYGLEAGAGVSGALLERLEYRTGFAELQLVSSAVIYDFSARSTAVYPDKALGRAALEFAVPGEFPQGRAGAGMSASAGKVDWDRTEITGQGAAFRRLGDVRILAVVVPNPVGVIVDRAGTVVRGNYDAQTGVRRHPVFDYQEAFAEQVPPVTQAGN

[5] = molecular target: T5, NylCp2-R^122 alpha subunit (D122R) (Arthrobacter, UniProt Q79F77 1-266, D122R)
T5 construct: NylCp2 alpha subunit with D122R; also called α subunit of NylCp2-R^122; source: E. coli JM109, purified with the beta subunit as the active enzyme
T5 sequence (looked up): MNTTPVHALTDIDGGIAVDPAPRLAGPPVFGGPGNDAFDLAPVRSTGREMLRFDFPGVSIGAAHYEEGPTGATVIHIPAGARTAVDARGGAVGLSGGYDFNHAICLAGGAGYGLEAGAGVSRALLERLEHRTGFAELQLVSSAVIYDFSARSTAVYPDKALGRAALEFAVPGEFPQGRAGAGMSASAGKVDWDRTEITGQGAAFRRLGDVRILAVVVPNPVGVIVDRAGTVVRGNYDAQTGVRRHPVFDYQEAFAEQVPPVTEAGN

[6] = molecular target: T6, NylCp2-Y^130 alpha subunit (H130Y) (Arthrobacter, UniProt Q79F77 1-266, H130Y)
T6 construct: NylCp2 alpha subunit with H130Y; also called α subunit of NylCp2-Y^130; source: E. coli JM109, purified with the beta subunit as the active enzyme
T6 sequence (looked up): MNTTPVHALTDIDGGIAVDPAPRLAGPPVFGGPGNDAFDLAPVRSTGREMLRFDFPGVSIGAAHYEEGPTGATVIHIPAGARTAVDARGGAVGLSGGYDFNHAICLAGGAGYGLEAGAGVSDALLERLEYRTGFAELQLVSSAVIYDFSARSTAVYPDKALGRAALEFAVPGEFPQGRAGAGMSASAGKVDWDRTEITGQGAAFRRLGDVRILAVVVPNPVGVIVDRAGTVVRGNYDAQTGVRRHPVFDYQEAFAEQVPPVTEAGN

- binding result [1]: binds
- binding result [2]: binds
- binding result [3]: binds
- binding result [4]: binds
- binding result [5]: binds
- binding result [6]: binds
B1: NylCp2 beta subunit (9 kDa) (domain or fragment, Arthrobacter, UniProt Q79F77 267-355, looked up)
chain: TTISAIVTNVRMSPVELNQFAKQVHSSMHRGIQPFHTDMDGDTLFAVTTDEIDLPTTPGSSRGRLSVNATALGAIASEVMWDAVLEAGK
notes: NylCp2, beta subunit made by autocleavage of the 355-residue precursor between Asn266 and Thr267; the same in the wild type and in the mutants crystallised here (all their substitutions lie in the alpha subunit); also called β subunit; source: E. coli JM109, purified with the alpha subunit as the active enzyme
